Measurements published in US20260242478A1 (published 2026).
Where no end group is shown, it is not given here.

B1: Phage-3406 (peptide)
peptide: AQGVCIPQWMCDGF
modifications: cysteine pairing not given here; also: fused to pIII of bacteriophage
B2: Phage-3410 (peptide)
peptide: VEPLCRPMWMCEGI
B3: Phage-3407 (peptide)
peptide: SEILCRPAWMCTGF
B4: Phage-3408 (peptide)
peptide: GDHYCKPDWMCSGF
B5: Phage-3413 (peptide)
peptide: SVKVCKPAWMCAGF
modifications: cysteine pairing not given here; also: fused to pIII of bacteriophage
B6: Phage-3411 (peptide)
peptide: SLAQCVPEWMCFGF
B7: Phage-3409 (peptide)
peptide: DTFMCRPSWMCNGF
B8: Phage-3412 (peptide)
peptide: ELVRCIPVWMCQGF
B9: Phage-3362 (Peptide-180 library peptide) (peptide)
peptide: HDLSCVPRWMCDGF
notes: tested as crude clonal phage supernatant
B10: Phage-3359 (Peptide-180 library peptide) (peptide)
peptide: VESWCIPAWMCTGF
notes: as for B9
B11: Phage-3361 (Peptide-180 library peptide) (peptide)
peptide: WMPYCVPHWMCDGF
notes: as for B9
B12: Phage-3360 (Peptide-180 library peptide) (peptide)
peptide: FPVRCVPEWMCSGF
notes: as for B9
B13: Phage-3363 (Peptide-180 library peptide) (peptide)
peptide: EDVLCKPLWMCFGF
notes: as for B9
B14: Phage-3385 (peptide)
peptide: ILPQCVPSWMCEGF
B15: Phage-3389 (peptide)
peptide: IGAMCEPKWMCFGF
modifications: cysteine pairing not given here; also: fused to pIII of bacteriophage
B16: Phage-3391 (peptide)
peptide: IEAVCKPSWMCAGF
modifications: cysteine pairing not given here; also: fused to pIII of bacteriophage
B17: Phage-3378 (peptide)
peptide: DVRLCRPSWMCSGF
B18: Phage-3388 (peptide)
peptide: MQMMCKPDWMCEGF
B19: Phage-3384 (peptide)
peptide: LEVHCRPSWMCVGF
B20: Phage-3390 (peptide)
peptide: QGTLCVPSWMCSGF
B21: Phage-3381 (peptide)
peptide: EMRYCVPRWMCEGF
B22: Phage-3383 (peptide)
peptide: NGALCKPVWMCQGF
B23: Phage-3379 (peptide)
peptide: QVPMCKPMWMCAGF
modifications: cysteine pairing not given here; also: fused to pIII of bacteriophage
B24: Phage-3387 (peptide)
peptide: FSVRCVPEWMCAGF
modifications: cysteine pairing not given here; also: fused to pIII of bacteriophage
B25: Phage-3382 (peptide)
peptide: VEPLCRPFWMCVGF
B26: Phage-3380 (peptide)
peptide: AEVRCVPQWMCFGL
B27: Phage-3386 (peptide)
peptide: FTALCKPMWMCRGF
B28: Phage-3364 (peptide)
peptide: ESNFCVPAWMCTGF
modifications: cysteine pairing not given here; also: fused to pIII of bacteriophage
B29: Phage-3368 (peptide)
peptide: IAVMCKPEWMCVGF
B30: Phage-3377 (peptide)
peptide: HDLRCVPEWMCYGL
B31: Phage-3366 (peptide)
peptide: QLPMCVPRWMCDGW
B32: Phage-3367 (peptide)
peptide: DHVMCKPKWMCEGF
B33: Phage-3372 (peptide)
peptide: DFAMCRPAWMCGGF
modifications: cysteine pairing not given here; also: fused to pIII of bacteriophage
B34: Phage-3370 (peptide)
peptide: LSIKCVPDWMCTGF
B35: Phage-3374 (peptide)
peptide: IDKMCVPSWMCWGF
B36: Phage-3371 (peptide)
peptide: PHAICKPAWMCVGL
B37: Phage-3369 (peptide)
peptide: HTPICVPVWMCAGF
modifications: cysteine pairing not given here; also: fused to pIII of bacteriophage
B38: Phage-3373 (peptide)
peptide: GHPICVPSWMCEGF
B39: Phage-3365 (peptide)
peptide: FEMLCRPIWMCTGF
B40: Phage-3376 (peptide)
peptide: EYIRCVPSWMCLDL
B41: Phage-3375 (peptide)
peptide: QEIYCVPEWMCSWF

The binders below were run against T1, PSMA Fab (assay: clonal phage ELISA; biotinylated PSMA Fab on neutravidin plate, blocking buffer alone; anti-M13 HRP detection;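 note: crude clonal phage supernatants added without washing to wells pretreated with blocking buffer with or without PSMA antigen, short incubation, then washed before detecting bound phage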).
T1 construct: also called Anti-PSMA Fab; 006 PSMA Fab
Description: (§1) Clonal phage were harvested as crude supernatants and screened via standard ELISAs. […] Prior to the addition of clonal phage. wells were incubated with blocking buffer and PSMA antigen or blocking buffer alone. Without washing or aspirating, clonal phage supernatants were then added to the wells and incubated for a short time. Wells were then washed followed by detection of bound phage using a horse radish conjugated anti-M13 antibody.

Binder	Phage binding ELISA signal, Anti-PSMA Fab
B1	1.79
B2	1.79
B3	1.79
B4	1.79
B5	1.79
B6	1.79
B7	1.79
B8	1.79

Each binder was assayed against T2, PSMA Fab (006 PSMA Fab) (assay: phage ELISA: clonal phage supernatant on biotinylated PSMA Fab captured on neutravidin plate, blocking buffer alone; anti-M13 HRP detection;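 note: crude clonal phage supernatants added to wells preincubated with blocking buffer, incubated briefly, bound phage detected with a horseradish-conjugated anti-M13 antibody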).
T2 construct: also called Anti-PSMA Fab
Description: as §1

Binder	phage binding ELISA signal
B9	1.82
B10	1.82
B11	1.82
B12	1.82
B13	1.82

What follows are binders tested against T2, PSMA Fab (006 PSMA Fab) (assay: phage ELISA: clonal phage supernatant on biotinylated PSMA Fab captured on neutravidin plate, wells pre-incubated with PSMA antigen as competitor; anti-M13 HRP detection).
Description: as §1

Binder	phage binding ELISA signal
B9	0.0671
B10	0.0794
B11	0.119
B12	0.0748
B13	0.0901

These binders were tested against T3, PSMA Fab (biotinylated (site not stated)) (assay: clonal phage ELISA on captured PSMA Fab pre-incubated with PSMA antigen as competitor, anti-M13-HRP detection;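 note: wells blocked with buffer plus PSMA antigen before phage addition, with blocking buffer alone as the no-competitor control, bound phage detected after washing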).
T3 construct: Biotinylated PSMA Fab captured on neutravidin coated plates in the phage ELISA; also called anti-PSMA Fab; 006 PSMA Fab

Binder	Phage binding ELISA signal, Anti-PSMA Fab with PSMA antigen
B14	0.106
B15	0.118
B16	0.0703
B17	0.0682
B18	0.0755
B19	0.062
B20	0.0523
B21	0.095
B22	0.0702
B23	0.0921
B24	0.0701
B25	0.127
B26	0.0952
B27	0.0718

What follows are binders tested against T3, PSMA Fab (assay: clonal phage ELISA on biotinylated PSMA Fab captured on neutravidin plates, anti-M13-HRP detection;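 note: crude clonal phage supernatants added to wells preincubated with PSMA antigen or with blocking buffer only (no wash between), briefly incubated, then washed before detecting bound phage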).
Description: as §1

Binder	Phage binding ELISA signal, Anti-PSMA Fab
B14	1.81
B15	1.8
B16	1.8
B17	1.81
B18	1.8
B19	1.81
B20	1.8
B21	1.81
B22	1.81
B23	1.81
B24	1.8
B25	1.81
B26	1.81
B27	1.81

These binders were tested against T4, PSMA Fab (006 PSMA Fab) (biotinylated (site not stated)) (assay: clonal phage ELISA on captured PSMA Fab pre-incubated with PSMA antigen as competitor;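 note: crude clonal phage supernatants added to wells without washing away the PSMA competitor, bound phage detected by HRP-conjugated anti-M13 antibody, reference wells received blocking buffer only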).
T4 construct: In the clonal phage ELISA the biotinylated PSMA Fab was captured on neutravidin coated plates; also called Anti-PSMA Fab

Binder	Phage binding ELISA signal, Anti-PSMA Fab with PSMA antigen
B28	0.073
B29	0.0964
B30	0.0734
B31	0.129
B32	0.0947
B33	0.0683
B34	0.09
B35	0.0876
B36	0.0913
B37	0.0746
B38	0.0862
B39	0.14
B40	0.0615
B41	0.0642

These binders were tested against T4, PSMA Fab (006 PSMA Fab) (assay: clonal phage ELISA on biotinylated PSMA Fab captured on neutravidin, anti-M13 HRP detection, no PSMA).
Description: as §1

Binder	Phage binding ELISA signal, Anti-PSMA Fab
B28	1.82
B29	1.82
B30	1.81
B31	1.82
B32	1.82
B33	1.81
B34	1.81
B35	1.81
B36	1.81
B37	1.82
B38	1.81
B39	1.82
B40	1.81
B41	1.81

Each binder was assayed against T1, PSMA Fab (assay: clonal phage ELISA; biotinylated PSMA Fab on neutravidin plate, pre-incubated with PSMA antigen as competitor; anti-M13 HRP detection).
Description: as §1

Binder	Phage binding ELISA signal, Anti-PSMA Fab with PSMA antigen
B1	0.0715
B2	0.122
B3	0.104
B4	0.071
B5	0.102
B6	0.113
B7	0.072
B8	0.368
